# Measured values from the supplement of paper PMC11865577.
# Test system: G-clamp-N3 (biotin conjugate)
# Experiment: pull-down binding Z-score (relative to library population); higher = stronger binding
# Conditions: RNA library: Library-1 (pre-miRNA loops + repeats)
# Method in brief: (§1)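 Biotin-conjugated small molecule (100 pmol) on streptavidin beads was incubated with 1 μg of heat-folded Cy5- or Cy3-end-labelled RNA library in phosphate/NaCl/KCl buffer at 25 °C for 60 min. Following three washes, RNA was eluted with hot SDS and hybridised at 55.5 °C for 20 h to a DNA barcode microarray. The binding value is a Z-score computed from the library mean and standard deviation, after subtraction of beads without compound and averaging of barcoded replicate probes with the highest and lowest excluded.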
row,Sequence,pull-down binding Z-score
1,UAGAGUAGGAGAGCCCACUGA [hsa-mir-6846],0.203
2,UAGAUACUCAGGAGGGUGAGUAUCUA [hsa-mir-5689],1.64
3,UAGAUGAAUAAAUGAAUGACUCAUCA [hsa-mir-545],-0.383
4,UAGAUGUUAUAAAAAUAUAUAUCUG [hsa-mir-4680],0.187
5,UAGGAGCUGUGCCUCCUGGCCUAUUCCUGUUCGUG [hsa-mir-8056],0.294
6,UAGGAUUUGGGAGUUAUACUA [hsa-mir-5690],0.541
7,UAGGCCCACUGCUCAGUGGAGC [hsa-mir-7847],0.533
8,UAGGCUGUGCAGGUCCCAAUGGGCCUA [hsa-mir-26a-1],1.56
9,UAGGCUGUUUCCAUCUGUGAGGCCUA [hsa-mir-26a-2],-0.141
10,UAGGGCGCGGAGGGCGGACCGGGAA [hsa-mir-638],0.973
11,UAGGGCUGGAUGGUAGGGCCCA [hsa-mir-6890],2.15
12,UAGGUGGUCGAAGUCAUCCACA [hsa-mir-7153],-0.765
13,UAGGUUGUGUGCUGUCCAGCCUG [hsa-mir-26b],-0.497
14,UAGGUUGUUAUUUAAUCCAACU [hsa-mir-190a],-1
15,UAGUACAGGUGAGAUUGUACUG [hsa-mir-3920],0.5
16,UAGUCUAAUAGGGACUA [hsa-mir-5681b],2.76
17,UAGUGGAAAGAGCACUG [hsa-mir-378b],1.15
18,UAUAACUUGAAGAAUUCAAAUAGUCAUG [hsa-mir-3146],-0.817
19,UAUAGCUACAUCAGUUAUAACUAUAUCAGUUAAA [hsa-mir-5582],-1.59

row,Sequence,pull-down binding Z-score
1,UAUAGGAAGGAAAUCUUAU [hsa-mir-6129],-0.636
2,UAUAGUGUGUUUGAUUUGCACUGUA [hsa-mir-4703],0.116
3,UAUAUACUGAUGUAAUUUUCCUUGGAUUUAUAUGCAGUACUGAG [hsa-mir-6130],-0.931
4,UAUAUGCUUUUUAAAUGGGGCACAGA [hsa-mir-5586],2
5,UAUAUUCGGUUUAUUGACAUGGAAUAUA [hsa-mir-381],2.02
6,UAUCUAUAUAUAUGUGUA [hsa-mir-3171],-0.471
7,UAUGAAGGUAAGCAUUUUUGUA [hsa-mir-3935],-0.00708
8,UAUGACCAGGCCAUAGUAAACAUCAUA [hsa-mir-4744],1.78
9,UAUGCAAAGCUCUGACAGUGUUUCACUUGCUA [hsa-mir-7848],0.148
10,UAUGCCAUUAAAAGUAAUGGUAAA [hsa-mir-548aj-1],-0.52
11,UAUGCCUACAAAAUCCCUCCAGACUGGCAUA [hsa-mir-4666a],-0.858
12,UAUGUGAUUCUACUGCUCACUCAUAUA [hsa-mir-135a-1],-0.239
13,UAUUCGCUUUAUUGACUUCGAAUA [hsa-mir-369],-0.422
14,UAUUCUCUAU [hsa-mir-2054],-1.01
15,UAUUCUGAUGUCCAAGUGGAAA [hsa-mir-372],-0.198
16,UAUUGCAAAGAUUUUCAAUA [hsa-mir-3915],-0.191
17,UAUUGGGCCAAUUCCCCCAAUG [hsa-mir-4781],-1.57
18,UAUUGUGUUGAUCAACAAUA [hsa-mir-5590],-0.46

# Test system: TO-3-N3 (biotin conjugate)
# Experiment: as above
# Conditions: RNA library: Library-2
# Method in brief: as §1
row,Sequence,pull-down binding Z-score
1,GUUGCUUAGAUUACAUGUAAC [hsa-mir-890],-0.632
2,GUUGGAUGGUCUAAUUGUGAAGCUCCUAAC [hsa-mir-141],-0.103
3,GUUGGCUCAAGAAAGGGAGAUAGAUGGUAGCCC [hsa-mir-6884],1.71
4,GUUGGGAUUGAGUUUUGAACUCGGC [hsa-mir-196a-2],0.00707
5,GUUGGGCAUCCACAGUCUCCCACC [hsa-mir-1911],-0.0617
6,GUUGGGGAACAGGUGGUUAGCACUUCAU [hsa-mir-5196],1.07
7,GUUGUUGUCUUACUGCGCUCAACAAC [hsa-mir-7-2],0.0252
8,GUUGUUGUGAGCAAUAGUAAGGAAGCAAU [hsa-mir-34a],0.276
9,GUUGUUUUUAGAUAACUAAAUCGACAAC [hsa-mir-7-1],0.721
10,GUUUACGUGAUUCCUGGUUAAUC [hsa-mir-376b],-0.121
11,GUUUAUUUUGUAGC [hsa-mir-4317],0.299
12,GUUUCUAAAAAAAUAAAAAGUUAAAAAAAUUUAUGUUAACGUGUAAUGUGUUUACUAAUUUUUUUUUUUUUUUUUGGAGAC [hsa-mir-3908],-0.27
13,GUUUCUGUUGUCUGAAAGGAAAGAAAG [hsa-mir-520e],-0.489
14,GUUUGAUAGUUUAGACACAAAC [hsa-mir-3591],0.44
15,GUUUGCAAGGGGUGUUUCUGUCCAUGGUCAGGC [hsa-mir-4283-1_4283-2],0.578
16,GUUUGCCUGUUAAUGAAUUCAAAC [hsa-mir-3129],0.445
17,GUUUGGCAGGACAGUUUCCAAGC [hsa-mir-6779],-0.587
18,GUUUGGGUGCGGUUGGGAGUCUCUAAU [hsa-mir-200c],1.66
19,GUUUUACUAUGAUGAGGUGUGCCAUCCACCCCAUCAUAGUAAAC [hsa-mir-606],-0.262
20,GUUUUUUAAGAGGAAGGGAGACCUAAGCUAGCA [hsa-mir-4481],0.205
21,UAAAGAGUAUUCAACAUC [hsa-mir-1245b],-0.609
22,UAAGAGUAAUAGCUCUCUAGGUUAUUAUGAAUA [hsa-mir-5692c-1],-0.283
23,UAAGUGUCCUAGCACUUA [hsa-mir-374b],0.251
24,UAAGUGUUAUAGCACUUA [hsa-mir-374a],-0.901
25,UAAGUUGUGAUCAUACCA [hsa-mir-1273g],-0.424
26,UAAUAACUGACAAACAGACAAUUG [hsa-mir-4774],-0.343
27,UAAUAGCAAUCCUUAAAUGCCAUUA [hsa-mir-4477b],-0.947
28,UAAUAUGCACUAUAAAUAUAUUG [hsa-mir-450a-1],-0.774

row,Sequence,pull-down binding Z-score
1,UAAUAUGUAAUAUAAAUGUAUUG [hsa-mir-450a-2],0.202
2,UAAUCACAGGCCACAUUUCUGAAUA [hsa-mir-1295b],-0.745
3,UAAUGAUUGGAGUCAUUUUCAGAGCAUUA [hsa-mir-3202-1],-0.304
4,UAAUGCUCUGAAAAUGACUCCAAUCAUUA [hsa-mir-3202-2],-0.685
5,UACAAUUUUUUUUUUUUUAAAUUUUA [hsa-mir-1303],-0.51
6,UACAUAGUUCAUGCUGAGGCCGGGAUUUCAUGCAGAAAACUGGUUGCAAAAGGUGCUGAAG [hsa-mir-6085],-0.189
7,UACUAACAGCACUGGAGGGUGUA [hsa-mir-142],-0.0529
8,UAGACAAUGGUUUCAUCAUUUCGUCUG [hsa-mir-4427],-0.317
9,UAGAGGGUAAAAUUAAUAACCUUCUA [hsa-mir-628],0.214
10,UAGAGUAGGAGAGCCCACUGA [hsa-mir-6846],0.712
11,UAGAUACUCAGGAGGGUGAGUAUCUA [hsa-mir-5689],-0.511
12,UAGAUGAAUAAAUGAAUGACUCAUCA [hsa-mir-545],-0.346
13,UAGAUGUUAUAAAAAUAUAUAUCUG [hsa-mir-4680],-0.708
14,UAGGAGCUGUGCCUCCUGGCCUAUUCCUGUUCGUG [hsa-mir-8056],-0.344
15,UAGGAUUUGGGAGUUAUACUA [hsa-mir-5690],-0.528
16,UAGGCCCACUGCUCAGUGGAGC [hsa-mir-7847],-0.238
17,UAGGCUGUGCAGGUCCCAAUGGGCCUA [hsa-mir-26a-1],0.169
18,UAGGCUGUUUCCAUCUGUGAGGCCUA [hsa-mir-26a-2],-0.164
19,UAGGGCGCGGAGGGCGGACCGGGAA [hsa-mir-638],5.36
20,UAGGGCUGGAUGGUAGGGCCCA [hsa-mir-6890],0.343
21,UAGGUGGUCGAAGUCAUCCACA [hsa-mir-7153],-0.108
22,UAGGUUGUGUGCUGUCCAGCCUG [hsa-mir-26b],-0.484
23,UAGGUUGUUAUUUAAUCCAACU [hsa-mir-190a],-0.24
24,UAGUACAGGUGAGAUUGUACUG [hsa-mir-3920],-0.707
25,UAGUCUAAUAGGGACUA [hsa-mir-5681b],0.02
26,UAGUGGAAAGAGCACUG [hsa-mir-378b],-0.39
27,UAUAACUUGAAGAAUUCAAAUAGUCAUG [hsa-mir-3146],-0.804
